Reference: IntAct's records for PubMed 15205937

B1: Cysteine and glycine-rich protein 3 (Homo sapiens), P50461 (parent)
chain: MPNWGGGAKCGACEKTVYHAEEIQCNGRSFHKTCFHCMACRKALDSTTVAAHESEIYCKVCYGRRYGPKGIGYGQGAGCLSTDTGEHLGLQFQQSPKPARSVTTSNPSKFTAKFGESEKCPRCGKSVYAAEKVMGGGKPWHKTCFRCAICGKSLESTNVTDKDGELYCKVCYAKNFGPTGIGFGGLTQQVEKKE

Variants of: B1
Conditions: with nrap_human NRAP

effect of a mutation on the interaction	Variant
disrupting interaction	C58G

Variants of: B1
Conditions: with nrap_human NRAP
Remark: another data set of the same source

effect of a mutation on the interaction	Variant
decreasing interaction	C58G

Variants of: B1
Conditions: with actn2_human ACTN2, P35609
Chain of actn2_human ACTN2, P35609 (P35609 whole entry): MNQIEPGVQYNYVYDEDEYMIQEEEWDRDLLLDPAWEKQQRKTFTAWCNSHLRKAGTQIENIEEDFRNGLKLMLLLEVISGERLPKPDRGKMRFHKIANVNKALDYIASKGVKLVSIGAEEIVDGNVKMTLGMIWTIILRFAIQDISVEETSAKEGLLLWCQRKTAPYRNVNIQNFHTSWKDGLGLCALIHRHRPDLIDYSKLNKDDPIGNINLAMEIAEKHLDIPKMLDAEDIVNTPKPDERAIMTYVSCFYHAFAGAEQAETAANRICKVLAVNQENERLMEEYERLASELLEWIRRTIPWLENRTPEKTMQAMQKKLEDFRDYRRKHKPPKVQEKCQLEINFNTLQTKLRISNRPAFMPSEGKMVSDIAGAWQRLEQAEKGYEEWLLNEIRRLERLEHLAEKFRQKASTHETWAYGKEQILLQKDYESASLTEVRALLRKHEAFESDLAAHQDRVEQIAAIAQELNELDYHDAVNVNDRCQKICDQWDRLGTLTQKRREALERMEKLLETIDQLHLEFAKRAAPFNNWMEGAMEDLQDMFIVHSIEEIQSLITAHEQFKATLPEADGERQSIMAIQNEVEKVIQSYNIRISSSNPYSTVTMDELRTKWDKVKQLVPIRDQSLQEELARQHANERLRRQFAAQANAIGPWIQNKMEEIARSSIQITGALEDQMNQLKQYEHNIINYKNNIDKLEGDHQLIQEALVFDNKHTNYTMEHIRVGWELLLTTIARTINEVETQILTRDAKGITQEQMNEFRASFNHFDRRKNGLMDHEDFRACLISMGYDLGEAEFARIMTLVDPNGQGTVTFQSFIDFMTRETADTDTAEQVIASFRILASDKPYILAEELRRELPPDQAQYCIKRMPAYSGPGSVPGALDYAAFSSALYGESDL

effect of a mutation on the interaction	Variant
decreasing interaction	C58G
